Sequences and labels used below:
B1: Chromodomain-helicase-DNA-binding protein 3, residues 374 to 426; numbered along this chain, Q12873 (parent)
chain: YETDHQDYCEVCQQGGEIILCDTCPRAYHLVCLDPELDRAPEGKWSCPHCEKE

± gives the uncertainty stated by the source.

This series covers variants of B1. The series is described as follows: abundance fitness (aPCA) (normalised: wild type 0, dead -1); higher = more abundant; growth selection in yeast, the domain comes from the species named. To be noted: Homo sapiens.
As to H49F, the abundance fitness was -0.244 ± 0.33.
H49P: the abundance fitness was -0.334 ± 0.24.
For C47Y the value was -0.972 ± 0.23; for C47R, -0.835 ± 0.12; for C47F, -0.465 ± 0.19.
To C47H belongs -1.07 ± 0.38; to C47Q, -0.835 ± 0.31; to C47D, -0.512 ± 0.21.
Take C47K: the abundance fitness is -1.02 ± 0.28.
For C47E the value was -1.08 ± 0.21; for C47T, -0.931 ± 0.2; for C47V, -0.753 ± 0.12.
For C47S the value was -0.814 ± 0.16; for C47G, -0.767 ± 0.11.
For C47W, the abundance fitness is -0.847 ± 0.18.
To C47A belongs -1.06 ± 0.15.
For the variant C47M, the abundance fitness was -0.657 ± 0.18.
To C47P belongs -1.05 ± 0.22; to E53R, -0.276 ± 0.21.
For E53W the value was -0.401 ± 0.32; for E53C, -0.584 ± 0.47; for E53V, -0.309 ± 0.17.
With E53I, the abundance fitness is -0.37 ± 0.36.
For E53D the value was -0.374 ± 0.23; for E53H, -0.426 ± 0.3.
For E53T the value was -0.187 ± 0.31; for E53M, -0.19 ± 0.28.
Regarding E53G, the abundance fitness is -0.118 ± 0.15.
For E53Q the value was -0.118 ± 0.26; for E53S, -0.48 ± 0.22; for P48N, -0.014 ± 0.18.
For P48M the value was -0.07 ± 0.12; for P48K, -0.109 ± 0.13; for P48E, -0.074 ± 0.14.
To P48T belongs -0.24 ± 0.16.
Turning to P48A, the abundance fitness is -0.002 ± 0.11.
To P48D belongs -0.416 ± 0.18.
For P48S the value was -0.217 ± 0.11.
To P48Q belongs -0.078 ± 0.2; to P48C, -0.203 ± 0.15; to P48F, -0.528 ± 0.24.
Take P48G: the abundance fitness is -0.031 ± 0.097.
To P48W belongs -0.358 ± 0.14; to P48V, -0.139 ± 0.11; to P48H, -0.599 ± 0.28.
To P41Y belongs -0.153 ± 0.19; to P41D, -0.368 ± 0.2.
For P41F the value was -0.25 ± 0.2; for P41S, -0.045 ± 0.11.
For the variant P41G, the abundance fitness turned out to be 0.028 ± 0.097.
To P41I belongs -0.083 ± 0.17; to P41A, -0.114 ± 0.12.
Turning to P41N, the abundance fitness was -0.026 ± 0.19.
To P41H belongs -0.374 ± 0.23; to P41E, -0.092 ± 0.15; to P41R, -0.093 ± 0.092.
To P41T belongs -0.06 ± 0.14; to P41L, 0.015 ± 0.1.
To P41K belongs -0.25 ± 0.22; to P41Q, -0.073 ± 0.17.
With P41M, the abundance fitness is -0.202 ± 0.15.
To P41C belongs -0.344 ± 0.17; to P41W, -0.317 ± 0.12; to C50G, -0.383 ± 0.12.
For C50P the value was -0.424 ± 0.16; for C50F, -0.682 ± 0.31.
To C50V belongs -0.598 ± 0.12; to C50Y, -0.791 ± 0.15; to C50N, -0.664 ± 0.38.
With C50D, the abundance fitness was -0.176 ± 0.26.
To C50L belongs -0.468 ± 0.11.
For C50H the value was -0.291 ± 0.33.
To C50A belongs -0.417 ± 0.13.
As for C50S, the abundance fitness is -0.66 ± 0.14.
For C50E the value was -0.547 ± 0.16; for C50W, -0.565 ± 0.13.
For C50I the value was -0.564 ± 0.28.
For C50K the value was -0.923 ± 0.23.
In the case of C50Q, the abundance fitness was -0.57 ± 0.22.
To E42V belongs -0.044 ± 0.1; to E42A, -0.171 ± 0.1; to E42G, 0.003 ± 0.1.
For E42C the value was -0.005 ± 0.13; for E42F, -0.296 ± 0.17.
To E42T belongs -0.173 ± 0.2; to E42W, -0.396 ± 0.14; to E42H, 0.164 ± 0.21.
Consider E42S, for which the abundance fitness was -0.06 ± 0.12.
Turning to E42Q, the abundance fitness is -0.088 ± 0.17.
For E42Y the value was -0.219 ± 0.16; for E42M, -0.203 ± 0.17; for E42D, -0.484 ± 0.19.
Take E42L: the abundance fitness is 0.066 ± 0.1.
For E42K the value was -0.181 ± 0.22; for E42R, -0.232 ± 0.11; for E42P, -0.138 ± 0.2.
For W45N the value was 0.035 ± 0.19; for W45I, -0.221 ± 0.17; for W45T, -0.143 ± 0.17.
To W45K belongs -0.072 ± 0.16; to W45F, 0.158 ± 0.17.
For W45L, the abundance fitness is -0.218 ± 0.1.
Take W45H: the abundance fitness is -0.101 ± 0.18.
Turning to W45A, the abundance fitness was -0.037 ± 0.16.
With W45Q, the abundance fitness was determined as 0.19 ± 0.15.
Consider W45M, for which the abundance fitness was -0.268 ± 0.16.
To W45Y belongs 0.171 ± 0.15; to W45S, -0.224 ± 0.12; to W45G, -0.312 ± 0.1.
To W45C belongs -0.182 ± 0.17; to W45E, -0.099 ± 0.15.
As for W45R, the abundance fitness is -0.204 ± 0.1.
To K44I belongs 0.363 ± 0.25; to K44W, -0.525 ± 0.14.
For K44L the value was -0.011 ± 0.11; for K44C, -0.071 ± 0.14; for K44Q, 0.038 ± 0.14.
To K44P belongs -0.264 ± 0.16.
With K44Y, the abundance fitness is -0.395 ± 0.26.
To K44D belongs -0.329 ± 0.24; to K44N, -0.492 ± 0.45.
To K44E belongs -0.096 ± 0.13; to K44F, -0.136 ± 0.37; to K44R, 0.043 ± 0.1.
To K44V belongs -0.39 ± 0.13; to K44S, 0.077 ± 0.13.
Turning to K44T, the abundance fitness was -0.304 ± 0.18.
Consider K44G, for which the abundance fitness turned out to be 0.101 ± 0.092.
To K44M belongs -0.011 ± 0.19.

Source of the values: the Human Domainome abundance scans (Beltran et al. 2025).
